Test system: K4 kissing-loop RNA reporter
Assay: apparent KD of K4 kissing-loop reporter; higher = weaker reporter binding
Details: Eterna round: R107
Experimental: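 RNA-MaP round R107: designed RNA switches with theophylline, tryptophan, arginine or FMN aptamers are transcribed on-chip within common flanks. They are titrated with a labelled K4 kissing-loop RNA reporter in RNA-MaP buffer (100 mM Tris pH 7.5, 80 mM KCl, 4 mM MgCl2), without ligand or with the indicated ligand. Median apparent KD per design.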

[1] = input ligand: theophylline 20 uM
[2] = input ligand: tryptophan 2.4 mM
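Note: bound reporter read as fluorescence of individual clusters on recovered sequencing chips by microscopy, with normalized cluster intensities fitted with a binding model.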

Sequence | apparent KD of K4 kissing-loop reporter (input ligand: FMN 200 uM) | apparent KD of K4 kissing-loop reporter (input ligand: arginine 13.2 mM) | apparent KD of K4 kissing-loop reporter (input ligand: none) | apparent KD of K4 kissing-loop reporter [1] | apparent KD of K4 kissing-loop reporter [2]
ACCUAGUACGUAGGAUAUCGAACAUCAUUUAGUGAGAUCGAGUGAUGUUCGAUCACGUCUUCAGUUCGAGAAGGACGUACUAGGA [FMN B SS t4] | 335 nM | 273 nM | 302 nM | 477 nM | 351 nM
ACGAAGGAUGGAAGGAGCGCUCGUCAGUCCUGCGAGUGAUGUUCGUGGGUAAAUAUUCGCGAGCAGGUAGGUCGCCAUCUUGAAC [Veticeen] | 146 nM | 104 nM | 137 nM | 121 nM | 134 nM
ACGCUAGCUACCGAAAGGUAGCUAGCGAGUGAGGAUAUGUGGAAACACAGAAGGCACAGCGCAGUGAUGUUGUGCGGCGAAAGCC [whbob_SS_FMNA__2th166] | 462 nM | 275 nM | 418 nM | 231 nM | 803 nM
ACGGGCGGCUGAAGGAGCGGGCGGGCCCGAGUGAUGUUCGGGUGGGCCGUGAGGUCCGGAGCCCAGGUAGGUCGCGGUUCCGCCU [#2 Same State - Arginine B Attempt #14 (HarryS)] | 157 nM | 119 nM | 152 nM | 197 nM | 181 nM
ACGUAGCAGGCGGCCGCCACUCCGCAUAUGGAUCUCGAGUGAUGUUUGAGGGUGCCCAUCACAGCGAGGACCGGGCCAAUUAAGC [theeternabot_sameState_KL_Trp_B_10] | 86.2 nM | 105 nM | 127 nM | 179 nM | 254 nM
ACGUAUAUCAGAGGAUAUCGUAUUAAUAUUUUAUCUAUAUAUUAUAGCAGUGAUGUUGCAAUUAUUCGAGAAGGCUGAUUUACGA [JR_SSFMNB_Sub023] | 144 nM | 170 nM | 139 nM | 194 nM | 100 nM
ACGUCCCGUUUACUCGUGGGUUAGGUCGAUACCAGUAUUCAAACUUACCCUUGGCAGCGACAUGAGUGAUGUUCAUGUGCGAAGA [KL-XTheo-A5 #analogue] | 114 nM | 96.2 nM | 108 nM | 108 nM | 104 nM
ACGUCCGGAUUGAUCGUGGGCAUGGUCGAUACCAGUAGUUUAAUCUACCCUUGGCAGCGACAUGAGUGAUGUUCAUGUGCGAUGA [KL-XTheo-A7 #analogue] | 185 nM | 164 nM | 173 nM | 350 nM | 185 nM
ACUGGAAUUGUACUCCAGUGAUGUUGGAGGCAGGAUAUCCAGUAAAGGAGAAGGGCCAUCGCGCUAUUUGGCCGCAGGCGGCCAG [Acela] | 147 nM | 113 nM | 128 nM | 177 nM | 150 nM
AGAAAGAAGGCGGCCGCCACUCUGAUGGGCGAAAGCCCAUUUUUUUAGCAGUGAUGUUGCUUGUUGAGGACCGGGCCAAAGAAAU [2nd] | 179 nM | 174 nM | 155 nM | 193 nM | 114 nM
AGAACUGUCUGAGAUACCAGCCAUAGGAGUGAUGUUCCUAGCUCCACAAAGUGGAGCCAUGGCCCUUGGCAGCUCAGACAGUUCA [Omei KL Theo B SS A v8] | 219 nM | 191 nM | 219 nM | 133 nM | 206 nM
AGACAUAUGACUGUAUGUUUCCAAGGUGUCAAGGAUAUAGUAAACACUAGAAGGUGAGAUCACAGGAGUGAUGUUCGAAAAUGGA [theeternabot_sameState_KL_FMN_A_14] | 419 nM | 208 nM | 237 nM | 233 nM | 248 nM
AGACCACAAAGUGGUCAGUGUUCGCUGCAGCGAGGACCGGUACGGCCGCCACUCGCGAGUGAUGUUCGCGAGAGCAGCGAACACA [Omei KL Tryp A Exc A v6] | 90.9 nM | 83.4 nM | 82.1 nM | 87.3 nM | 116 nM
AGACUACCACACUGUCAAUAGACAGUGAGCUAGGAUAUGCUGAUAAGCAGAAGGAGUGAUGUUCCAAGGUAGUCAAUAAAAUAAU [FmnAX 13 G29+A66] | 209 nM | 203 nM | 221 nM | 267 nM | 209 nM
AGACUACCACACUGUCAAUAGACAGUGGACUAGGAUAUGCUGAUAAGCAGAAGGAGUGAUGUUCCAAGGUAGUCAAUAAAAUAAU [FmnAX 13 G28+A66] | 294 nM | 257 nM | 309 nM | 396 nM | 279 nM
AGACUACCACACUGUCAAUAGACAGUGUACUAGGAUAUGCUGAUAAGCAGAAGGAGUGAUGUUCCUGGGUAGUCAAUAAAAUAAU [FmnAX 13 U28+G67] | 507 nM | 388 nM | 486 nM | 514 nM | 404 nM
AGACUACUGAUAGGAUAUAACAUACUAACUCGUAUACCAAAGGUAUACGAGACCCUUCUAGUGAUGUUAGAAGGGUCGGUAGUCA [Omei KL FMN B Exc B v6] | 82.2 nM | 74 nM | 76.3 nM | 74.8 nM | 73.9 nM
AGAGUUAUGCGAGGAUAUGCGGUUAGUACUCAAAGAGUACUAACAGCAGAGUGAUGUUCUGUGAAAGCAGAAGGUGCAUAACUCA [Omei KL FMN B SS B v10] | 153 nM | 1060 nM | 1040 nM | 1120 nM | 1320 nM
AGAGUUAUGCGAGGAUAUGCGGUUAGUACUCAAAGAGUACUAACGGCAGAGUGAUGUUCUGUGAAAGCAGAAGGUGCAUAACUCA [Omei KL FMN B SS B v9] | 274 nM | 523 nM | 1090 nM | 327 nM | 1360 nM
AGAUUCGACACGGCCGCCACUCGUGGUGGAUUACCUAGUGUCGAAGUUGAGUGAUGUUCAACUACGAGGACCGGGUGUUGAGUCU [KL-XTryp-B7 #analogue] | 253 nM | 161 nM | 215 nM | 211 nM | 448 nM
AGAUUCUUUUUUUUAUUUAAGUUUUCAGAAGGAGCGUGGUAGUACACAGGUAGGUCGCUGAAUUUUGGGCUAGUGAUGUUAGUUA [whbob_SS_Arginine_A_sa115] | 180 nM | 188 nM | 221 nM | 231 nM | 135 nM
AGCGAUGUUUUCUCUAGGAGUGAUGUUUUUCGAGGACCGGUACGGCCGCCACUCGGACGACGAGUGUGGUAGUGGGCUGUUGACU [ffmullin] | 483 nM | 296 nM | 441 nM | 231 nM | 493 nM

Sequence | apparent KD of K4 kissing-loop reporter (input ligand: FMN 200 uM) | apparent KD of K4 kissing-loop reporter (input ligand: arginine 13.2 mM) | apparent KD of K4 kissing-loop reporter (input ligand: none) | apparent KD of K4 kissing-loop reporter [1] | apparent KD of K4 kissing-loop reporter [2]
AGGAAGUGAGAAGGAUAUUACACUCGGAAGCGCUAGUGAUGUUAGCAUAGAAACAAGGGAACAUGGUAAGAAGGUCUUACAAUGA [theeternabot_sameState_KL_FMN_B_2] | 76.6 nM | 71.6 nM | 38.9 nM | 69.5 nM | 40.1 nM
AGGAUCACGUCAGUGAUGUUGACAAGAGAUACCAGAGACGAAAGUCUCCCUUGGCAGCUCAUCGUGAUCCGUGACAAAGGUCACA [Omei KL hio A SS C v3] | 262 nM | 135 nM | 143 nM | 155 nM | 189 nM
AGGAUCCGUCGACAAAAGUCGACAUAAACCAAGGAUAUGACGAAAGUCAGAAGGUGGUCAUAAGGCCAGUGAUGUUGGUGGAUCC [FmnA 12 #SwitchBubble #K4Late] | 927 nM | 431 nM | 576 nM | 796 nM | 349 nM
AGGCACGAGCAAGGAUAUCGAGUAGAGUGAUGUUCUGCCUGGGUUGGCGCGUAAGGGCCUUCCCAGCGAGAAGGUGCUCGUGCCU [#2 Same State - FMN A Attempt #12 (HarryS)] | 253 nM | 681 nM | 939 nM | 677 nM | 660 nM
AGGCACGAGCAAGGAUAUCGAGUGGAGUGAUGUUCUGCCGACCCAGGACCGAAAGGUCCUGGGUCGCGAGAAGGUGCUCGUGCCU [#2 Same State - FMN A Attempt #8 (HarryS)] | 215 nM | 785 nM | 949 nM | 568 nM | 711 nM
AGGCCCGGCCGAAAGGCCGGGCCAAGAGAUACCAGCAGCGAAAGCUGCCCUUGGCAGCUCACUUAGUGAUGUUAAGAGAUAAAUG [SS Theo A Tesla 1.2] | 365 nM | 353 nM | 294 nM | 424 nM | 279 nM
AGGUACAAAAGUACCGCUAGAUCCACGGAAGGAGCGGCCGAAAGGCCAGGUAGGUCGCCGGGCAGUGAUGUUGCCGGAUCUAGCA [Omei KL Arginine A SS A v2] | 194 nM | 171 nM | 200 nM | 185 nM | 169 nM
AGGUCCGAGCCCGUAAGGGCUCGGACCUGUUAGGAUAUGACGUUAUUCAGAAGGGAUGGGUGGAGUGAUGUUCCACCCGCAAGGG [#2 Same State - FMN A Attempt #10 (HarryS)] | 98.8 nM | 102 nM | 93.2 nM | 91.7 nM | 95.7 nM
AGUGAAGUUAGUGAUGUGUGAGUUUGGGAAGGAGCGCCGAGAACGGCAGGUAGGUCGCCCAGUGAUGUUGGUGUAAAGAUGAGAG [whbob_Ex_Arginine_A_2t121] | 275 nM | 184 nM | 239 nM | 232 nM | 208 nM
AGUGAUGUAUGGCGGUUUGUCACUUAAAAUCAGGAUAUAUAAACAAAUAGAAGGGAUGGCGGAGUGAUGUUCCGCCGGCCGCCAU [FMN A Exl V1] | 171 nM | 145 nM | 177 nM | 179 nM | 162 nM
AGUGAUGUGGGAAGGAGCGCUACAAGACUUCAGUGAUGUUGAAGUGAUGAUUUAGUGUUGUAGCAGGUAGGUCGCCUAGAUGUUA [KL-XARG-B9] | 60.9 nM | 27 nM | 44.9 nM | 36.2 nM | 39.1 nM
AGUGAUGUGGGAAGGAGCGGUACAUGACUUCAGUGAUGUUGAAGUGAUGAUUUAGUGAUGUGCCAGGUAGGUCGCCUAGAUGUUA [KL-XARG-B7] | 79.8 nM | 36.7 nM | 68.1 nM | 41.8 nM | 51 nM
AGUGCACUGUCAGGAUAUAUACAGUGAUGUUGUGUAUGUCAGCAAGUCAAAGACUUGCUGUUCUGUGUAGAAGGGACUGUGUACA [Omei KL FMN B Exc A v3] | 911 nM | 457 nM | 450 nM | 467 nM | 426 nM
AGUGCCUGCCUUAGCCUUCCCAUCAACUUCCGAGGACCGGUACGGCCGCCACUCGGCCAUCGGGCUAGUGAUGUUACCUGGUGGA [theeternabot_sameState_KL_Trp_A_50] | 337 nM | 302 nM | 327 nM | 320 nM | 224 nM
AGUGUUAGGUUAGAUACCAGCCGUUCGUGAAUAAUCCUCGAACCGCCAGUGAUGUUGGCAGGCCCUUGGCAGCUAACAGAACAGA [Maxeusla] | 243 nM | 216 nM | 207 nM | 170 nM | 223 nM
AGUUCCUCUGUCGAUACCAGCUUCAGUUGGCGGCCAGUGAUGUUGGUAUCGCCGAUGCCAAGCCCUUGGCAGCGACAUGAGACCC [Lausso] | 188 nM | 187 nM | 169 nM | 111 nM | 197 nM
AUAAACUUGCAGUGAUGUUGCAAGUGAGACUAGGAUAUCAGGAAGCUGAGAAGGAGUCAUCUCCUUCAGACAUCACUAUGAAGGA [whbob_SS_FMNA__2th179] | 334 nM | 191 nM | 251 nM | 205 nM | 232 nM
AUAGAGAAGUGGCACCCUCACUAAAACAGUCGAGGACCGGUACGGCCGCCACUCGCGCGCUUUAGUGAUGUUAAAGAUGUGAAAA | 223 nM | 209 nM | 223 nM | 508 nM | 215 nM
AUCUAGAUGCGAAGGAGCGCCUCAACGCGCUAUCUAUGGAGUGAUGUUCCAACGUAUGAGAGGCAGGUAGGUCGCGCAUCUAGAA [Arg B Ex t1] | 129 nM | 113 nM | 132 nM | 117 nM | 115 nM
AUGCGCGUGCGAUGUAAAUCGCACGCGCAUCGAGGACCGGUACGGCCGCCACUCGCUCGCGCCGAGUGAUGUUCGGCCGGCGAAC [#2 Same State - Tryptophan A Attempt #5 (HarryS)] | 442 nM | 278 nM | 527 nM | 454 nM | 476 nM
AUGGUGGAUCAGUGAUGUUGGUGGAGUACGUAGGAUAUGAGUGAUGUUAGAAGGAUGGGAGUGAUGUUCCAGGUGGUUGUGUUGU [KL-SSFMN-A1] | 557 nM | 364 nM | 652 nM | 507 nM | 492 nM

Reference: the supplement of paper PMC9170038
